The values that follow come from patent publication US20190307907A1, “MOLECULAR SENSOR FOR NMR/MRI BASED ON ANALYTE-DEPENDENT SPECTRAL CHANGES OF TEMPORARILY ENCAPSULATED HYPERPOLARIZED 129XE” (KLINIKUM RECHTS DER ISAR DER TECHNISCHEN UNIVERSITÄT MÜNCHEN, priority 2016, published 2019).

The target of data set [1] is T1, calmodulin (Homo sapiens, UniProt P0DP23). In words: Hyper-CEST spectra of cryptophane-conjugated peptides with calmodulin in absence and presence of calcium (FIG. 5). Type of data set: biochemical. To be noted: peptide 1 μM, calmodulin 3 μM, MOPS; for Ca2+-dependent CEST unsuppression / signal change on calmodulin binding: calcium up to 100 μM; for CEST suppression (baseline, absence of calcium): no calcium, hyperpolarized 129Xe, 9.4 T. On the procedure: Hyperpolarized Xenon was bubbled into buffered (MOPS) solutions containing different cryptophane bearing peptides indicated in the respective subfigures (1 μM) and calmodulin (3 μM) in the absence and presence of 100 μM calcium and CEST spectra were obtained on a 9.4 T Bruker AV 400 wide bore NMR spectrometer. (E) Effects of C-terminal portion of RS20 on the NMR-signal modulation. Replacement of the maleimide-Fluorescein by a maleimide capping group (NEM) partially unsuppresses the CEST effect.
However, the CEST suppression and Ca^2+-mediated unsuppression is weaker if the cryptophane cage is attached at the third lysine (@K3, FIG. 5B). […] (FIG. 5C).
(§1) The production, delivery and application of hyperpolarized Xe for NMR and MRI studies has been described previously including a full list of materials (Witte et al., 2012; Witte et al., 2014). Typically, hyperpolarized ^129Xe (20% polarization and more) is generated by spin exchange optical pumping using a 150 W continuous wave laser (795 nm, 0.5 nm bandwidth) in a custom-designed continuous flow setup at 4.5 bar absolute pressure using a gas mixture of 5% Xe (26.4% natural abundance of ^129Xe), 10% N2, and 85% He.
Experiments benefit from high field MRI scanners because of the increased spectral resolution for resolving the CEST response. As an example, a 9.4 T NMR spectrometer can be used for the NMR experiments. It requires gradient coils for MR imaging and a variable temperature unit for adjusting the sample temperature. A 10 mm inner-diameter double resonant probe (^129Xe (110 MHz) and ^iH (400 MHz)), can be used for excitation and detection.
The freshly hyperpolarized xenon gas mix is directly bubbled into solution for ca. 15 seconds at a total flow rate of 0.1 SLM followed by a 1 s delay (to allow possible remaining bubbles to collapse) before signal acquisition. To reduce foaming, 0.1% of Pluronic® L81 may be added to the sample. After bubbling, a saturation RF pulse is irradiated at the desired frequency and the signal of free Xe in solution is observed. ^129Xe Hyper-CEST MR images can be acquired using averages of a RARE sequence with a slice-selective 90° gaussian shaped excitation pulse and high RARE factor (up to 32 for a 32×32 matrix size) due to sufficiently slow T2 relaxation. Two images are acquired, one with an off-resonant saturation pulse for control and one with an on-resonant saturation pulse to induce signal loss in the vicinity of the sensor. Hyper-CEST MR images are obtained by a pixel-wise subtraction of the noise corrected off- and on-resonant images. All data analysis was performed with MATLAB®.

For data set [2], the system named is lysates obtained from HEK293 cells. In words: Functionality of the sensor in cell lysates (FIG. 13). The following applies: for sensor response on addition of saturating calcium: HEK293 lysate with CaM, saturating amounts of calcium; for sensor response on addition of just CaM: HEK293 lysate, calcium already present in the lysate. Type of data set: biochemical. The protocol:
FIG. 13: Functionality of the sensor in cell lysates. The sensor M13-based sensor (blue) and RS20-based sensor (red) were added to lysates obtained from HEK293 cells.

The target of data set [3] is T1, calmodulin. Kind of data set: Hyper-CEST calcium titration, binding curves of cryptophane-peptide sensors with calmodulin. To be noted: from CEST binding curves; 2 μM calmodulin; free calcium 0 to 39 μM; MOPS buffer; read-out: apparent dissociation constant. The protocol:
(A) CEST spectra from M13 with a cryptophane Cage and also harboring a fluorescein (G-K(Cr-A)-[…]-C(5-Fluo-M)-amid) where Cr-A denotes the cryptophane A cage attached on the lysine residue and 5-Fluo-M a fluorescein attached to a cysteine) in the presence of 2 μM calmodulin and in response to free calcium concentrations ranging from 0 to 39 μM (MOPS buffer) (B) CEST spectra from RS20 (GRR-K(Cr-A)-WQKTGHAVRAIGRLSSS-C(5-Fluo-M)-amid; same annotation of modifications as in (A)) plotted analogously as in (A). (C) Corresponding binding curves yielding an apparent dissociation constant of 0.91 μM and 1 μM for M13 and RS20 respectively.
as §1
Experiments benefit from high field MRI scanners because of the increased spectral resolution for resolving the CEST response. As an example, a 9.4 T NMR spectrometer can be used for the NMR experiments. […]

Data set [4] can be described thus: Circular dichroism and CEST spectra at different trifluoroethanol (TFE) concentrations (FIG. 12). Type of data set: physicochemical. To be noted: for CEST signal in TFE: 20% and 50% TFE; for CEST signal in TFE / CEST signal in water: without Ca2+ or CaM; for helicity of the peptide moiety (CD spectra): different concentrations of TFE. An excerpt:
FIG. 12: Spectroscopic changes upon conformational change.
On the technique in general: Circular dichroism is the unequal absorption of left and right circularly polarised light.

For data set [5], the system named is HEK293 cells. In words: Cellular uptake of cage-conjugated peptides, confocal microscopy and FACS (FIG. 8). Type of data set: cell-based. The following applies: 25 μM, 20 minutes. The protocol:
(A) Cage-conjugated peptides that were also labeled with fluorescein (25 μM) were incubated on HEK293 cells for 20 minutes followed by confocal microscopy imaging (nuclear counterstain with DAPI). (B) Analysis of FACS experiments with cells incubated with different peptides modified with cryptophane cages and fluorescein indicating labeling of the cells with the fluorescent peptides (sequences as indicated in FIG. 2; @K# indicates the lysine residue number used for conjugation of the cryptophane cage). […] The cellular uptake of similar EF-protein-binding peptides is likely due to their high scores on prediction tools for cell-penetration such as CPPpred or CellPPD.

Where no end group is shown, it is not given here. Cr‑A = cryptophane A cage on the Lys side chain; 5‑Fluo‑M = fluorescein maleimide

“ARKEVIRNKIRAIGK-CrytophaneCage-MARVFSVLR [calcineurin A peptide]”: in data set [1] (listed as cage-conjugated calcineurin), the “Ca2+-dependent CEST unsuppression / signal change on calmodulin binding” value is on record as “does not exhibit a change in the CEST effect”. In addition, the “CEST suppression (baseline, absence of calcium)” value in data set [1] is reported as “neither show a suppression”.
As to “G-K(Cr-A)-RRWKKNFIAVSAANRFKKISSSGAL-C(5-Fluo-M)-amid (GKRRWKKNFIAVSAANRFKKISSSGALC; cryptophane A on Lys; fluorescein on Cys; amide; Cr-A@K1_M13_Fluorescein)”, in data set [2], the “sensor response on addition of saturating calcium” value is given as “stronger response” and the “sensor response on addition of just CaM” value is given as “turned on the sensor”. For the same substance, the Kd in data set [3] was determined as 910 nM. Further, in data set [4], the “CEST signal in TFE” value is recorded as “turned on”, the “helicity of the peptide moiety (CD spectra)” value is listed as “increase of the helicity” and the “CEST signal in water” value was “no CEST signal”.
Consider “GRR-K(Cr-A)-WQKTGHAVRAIGRLSSS-C(5-Fluo-M)-amid (GRRK(Cr‑A)WQKTGHAVRAIGRLSSSC(5‑Fluo‑M)-NH2) [Cr-A@K1_RS20_Fluorescein]”, for which, in data set [1], the “Ca2+-dependent CEST unsuppression / signal change on calmodulin binding” value was “strong, Ca^2+-dependent CEST unsuppression” and the “CEST suppression (baseline, absence of calcium)” value is reported as “complete CEST suppression”. In addition, in data set [2], the “sensor response on addition of saturating calcium” value is recorded as “stronger response” and the “sensor response on addition of just CaM” value is given as “turned on the sensor”. Besides, the Kd in data set [3] came out at 1000 nM. Also, the “cellular uptake (confocal microscopy)” value in data set [5] is given as “uptake”. For the same substance, in data set [4], the “CEST signal in TFE” value was “turned on”, the “helicity of the peptide moiety (CD spectra)” value was “increase of the helicity” and the “CEST signal in water” value is on record as “no CEST signal”.
“GRRKWQK(Cr-A)-TGHAVRAIGRLSSS-C(5-Fluo-M)-amid (GRRKWQK(Cr‑A)TGHAVRAIGRLSSSC(5‑Fluo‑M)-NH2) [Cr-A@K3_RS20_Fluorescein, RS20 peptide with cryptophane A shifted three amino acids toward the center, C-terminal fluorescein]”: in data set [1] (listed as @K3), the “Ca2+-dependent CEST unsuppression / signal change on calmodulin binding” value is recorded as “weaker” and the “CEST suppression (baseline, absence of calcium)” value is “weaker”. Also, in data set [1] (listed as RS20-cage@K2), the “Ca2+-dependent CEST unsuppression / signal change on calmodulin binding” value is listed as “diminishes” and the “CEST suppression (baseline, absence of calcium)” value is listed as “diminishes the CEST suppression”.
